The experiment addresses T1, 金黄色葡萄球菌肠毒素B (Staphylococcus aureus, UniProt P01552 28-266).
T1 construct: Coated at 500 ng/mL
T1 sequence: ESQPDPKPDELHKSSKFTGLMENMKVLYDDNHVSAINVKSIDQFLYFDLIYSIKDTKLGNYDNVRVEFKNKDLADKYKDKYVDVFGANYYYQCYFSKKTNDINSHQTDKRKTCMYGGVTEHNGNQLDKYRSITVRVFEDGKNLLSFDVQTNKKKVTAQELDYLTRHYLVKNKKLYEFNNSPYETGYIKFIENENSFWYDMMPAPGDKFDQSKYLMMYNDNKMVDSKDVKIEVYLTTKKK
The experiment in a line: ELISA, coated antigen, HRP-conjugated nanobody, OD450.

B1: 抗金黄色葡萄球菌肠毒素A纳米抗体Anti-SEA-Nb A150 (VHH)
VHH: ESGGGLVQAGGSLRLSCTTSGFTFDDYAMGWFRQAPGKEREGVSCINWNGANAYYADSVKGRFTISRDNNKNTLYLQMNSLKPEDTALYYCAAGRMPILDDHGYVYWGQGTQVTVS
As for B1, the binding result was “no binding (tested: 500ng/mL (coated))”.

Values taken from patent CN113185610A (UNIV NORTHWEST A&F, dated 2021).
